Results from patent publication US20090137002A1 (published 2009).

T1: myc-tagged human EphB4 on transfected CHO cells (human, UniProt P54760 16-987)
T1 construct: whole, on cells; also called CHO-EphB4; CHO-hEphB4; not shown: myc tag
T1 sequence (looked up): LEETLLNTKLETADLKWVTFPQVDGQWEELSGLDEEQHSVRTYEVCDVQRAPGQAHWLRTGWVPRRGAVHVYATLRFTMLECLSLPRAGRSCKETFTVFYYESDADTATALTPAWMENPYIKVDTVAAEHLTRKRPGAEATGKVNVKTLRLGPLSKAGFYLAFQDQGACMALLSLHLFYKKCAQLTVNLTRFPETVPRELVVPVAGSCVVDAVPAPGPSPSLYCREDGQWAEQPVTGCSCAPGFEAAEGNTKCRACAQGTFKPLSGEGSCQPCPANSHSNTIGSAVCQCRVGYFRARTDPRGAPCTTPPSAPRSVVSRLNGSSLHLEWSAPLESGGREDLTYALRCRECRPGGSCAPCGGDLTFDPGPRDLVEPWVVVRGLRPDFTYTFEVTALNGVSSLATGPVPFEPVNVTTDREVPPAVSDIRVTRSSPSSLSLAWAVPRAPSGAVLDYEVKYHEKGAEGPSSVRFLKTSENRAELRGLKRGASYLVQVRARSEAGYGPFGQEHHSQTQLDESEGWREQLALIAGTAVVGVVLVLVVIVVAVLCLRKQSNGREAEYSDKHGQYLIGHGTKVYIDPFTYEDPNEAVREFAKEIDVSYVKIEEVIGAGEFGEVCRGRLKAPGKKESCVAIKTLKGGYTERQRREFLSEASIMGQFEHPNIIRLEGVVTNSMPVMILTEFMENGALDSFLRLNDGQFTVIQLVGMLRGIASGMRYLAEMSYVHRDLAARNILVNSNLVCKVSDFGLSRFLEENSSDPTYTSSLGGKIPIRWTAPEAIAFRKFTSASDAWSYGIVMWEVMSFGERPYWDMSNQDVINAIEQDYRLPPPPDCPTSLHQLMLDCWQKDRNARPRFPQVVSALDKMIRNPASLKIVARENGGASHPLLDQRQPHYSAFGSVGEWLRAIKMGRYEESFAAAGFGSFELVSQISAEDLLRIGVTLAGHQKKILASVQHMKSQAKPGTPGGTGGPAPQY

T2: recombinant mouse EphB3-Fc fusion protein (mouse, UniProt P54754 30-537, limits assumed)
T2 construct: also called mEphB3; not shown: Fc part, not described
T2 sequence (looked up): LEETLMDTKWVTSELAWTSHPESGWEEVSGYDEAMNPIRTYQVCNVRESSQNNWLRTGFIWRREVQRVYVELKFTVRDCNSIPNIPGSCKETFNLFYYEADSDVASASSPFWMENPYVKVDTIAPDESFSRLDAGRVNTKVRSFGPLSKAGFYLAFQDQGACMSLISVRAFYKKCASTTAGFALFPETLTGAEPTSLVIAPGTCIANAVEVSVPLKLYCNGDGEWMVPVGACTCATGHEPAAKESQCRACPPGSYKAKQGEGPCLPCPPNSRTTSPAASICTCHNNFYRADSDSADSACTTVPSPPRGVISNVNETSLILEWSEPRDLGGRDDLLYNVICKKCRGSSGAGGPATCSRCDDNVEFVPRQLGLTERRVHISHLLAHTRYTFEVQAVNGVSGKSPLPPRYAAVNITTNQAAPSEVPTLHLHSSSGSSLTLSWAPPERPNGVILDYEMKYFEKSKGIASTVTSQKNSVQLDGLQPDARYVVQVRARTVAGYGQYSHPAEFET


Key:
[1] = biological target: T1, myc-tagged human EphB4 on transfected …; assay: FACS titration of IgG4-Pro on CHO-EphB4 cells
Protocol: For the determination of EC50 values, the 12 final IgGs were analyzed on CHO-EphB4 cells in FACS. The EC50 values of the IgGs, determined in two independent experiments, are given in Table 11 and are compared to the EC50 values of the corresponding Fab. […] Again, as already seen for the Fab, the EC50 values of the MOR07310 pool were slightly better than those of the MOR03641 pool.

[2] = biological target: T1, myc-tagged human EphB4 on transfected …; assay: FACS, IgG4-Pro inhibition of murine ephrin-B2 binding to CHO-EphB4 cells
Protocol: (§1) C50 values (i.e. IgG4-Pro inhibition of ligand binding) were determined in FACS. […] Receptor-bound ephrin-B2 was detected via biotinylated anti-mouse ephrin-B2 antibody (R&D Systems) and streptavidin-PE. The IC50 values of the IgGs, determined in two independent experiments, are given in Table 11 and are compared to the IC50 values of the corresponding Fab. […] Again, as already seen for the Fab, the IC50 values of the MOR07310 pool were slightly better than those of the MOR03641 pool.

[3] = biological target: T1, myc-tagged human EphB4 on transfected …; assay: FACS competition on CHO-EphB4 cells, competitor murine ephrin-B2
Protocol: as §1

[4] = biological target: T2, recombinant mouse EphB3-Fc fusion …; assay: ELISA: mEphrinB2-Fc (25 ng/ml) on coated mEphB3-Fc, with or without 100 µg/mL anti-EphB4 Fab
Protocol: Specificity for EphB4 in ELISA: Wells of a 96-well maxisorp-plate were coated overnight with 100 μL recombinant human EphB4 (hEphB4)-, recombinant mouse EphB3 (mEphB3)- or recombinant mouse EphA4 (mEphA4)-Fc fusion protein at a final concentration of 2.5 μg/mL in PBS. Anti-EphB4 Fab fragments (purified, MH-tagged) were added (100 μL/well, 100 μg/mL final concentration in chemiblock) to respective wells and incubated for 1 h at RT. Then 100 μl mEphrinB2-Fc fusion protein either spiked with the respective anti-EphB4 Fab or with PBS was added (25 ng/ml mEphrinB2+/−100 μg/ml Fab diluted in chemiblock) and incubated for max. 20 min at RT. The amount of bound EphrinB2 was detected using biotinylated goat anti-EphrinB2 antibody (0.05 μg/ml final concentration diluted in chemiblock, 1 h at RT), AP-conjugated streptavidin and AttoPhos substrate. Fluorescence was measured (RFU) at 535 nm (430 nm excitation).

[5] = biological target: T1, myc-tagged human EphB4 on transfected …; assay: FACS, IgG4-Pro inhibition of murine ephrin-B2 binding to CHO-EphB4 cells; n = 1
Protocol: as §1

| Binder | EC50 [1] [nM] | EC50 (read off the curve) [1] [nM] | IC50 [2] [nM] | IC50 (read off the curve) [3] [nM] | fold improvement of IC50 compared to the corresponding Fab [2] [fold] | binding result [4] | IC50 [5] [nM] |
| --- | --- | --- | --- | --- | --- | --- | --- |
| MOR07953 IgG4-Pro (antibody, V domains shown, Fab MOR07953 converted into human IgG4-Pro format) VH: QVELVESGGGLVQPGGSLRLSCAASGFTFNNAWMSWVRQAPGKGLEWVSAINAKGQFTSYADSVKGRFTISRDNSKNTLYLQMNSLRAEDTAVYYCARKGMSFYNNKYAKSMFDLWGQGTLVTVSS VL: DIELTQPPSVSVAPGQTARISCSGDNLGKKYVHWYQQKPGQAPVLVIYYDSKRPSGIPERFSGSNSGNTATLTISGTQAEDEADYYCQTWTLSHMGNVFGGGTKLTVLG | 0.17 | ~0.1 | 0.23 | ~0.3 | – | – | – |
| MOR07724 IgG4-Pro (antibody, V domains shown, Fab MOR07724 converted into human IgG4-Pro format) VH: QVQLVESGGGLVQPGGSLRLSCAASGFTFNNAWMSWVRQAPGKGLEWVSGISADGVHKFYADSVKGRFTISRDNSKNTLYLQMNSLRAEDTAVYYCARKGMSFYNNKYAKSMFDLWGQGTLVTVSS VL: DIELTQPPSVSVAPGQTARISCSGDNLGKKYVHWYQQKPGQAPVLVIYYDSKRPSGIPERFSGSNSGNTATLTISGTQAEDEADYYCSAWTTTMMHIVFGGGTKLTVLG | 0.18 | – | 0.1 | ~0.1 | – | – | – |
| MOR07721 IgG4-Pro (antibody, V domains shown, Fab MOR07721 converted into human IgG4-Pro format) VH: QVQLVESGGGLVQPGGSLRLSCAASGFTFNNAWMSWVRQAPGKGLEWVSTIEAKMPNGATFYAAPVKGRFTISRDNSKNTLYLQMNSLRAEDTAVYYCARKGMSFYNNKYAKSMFDLWGQGTLVTVSS VL: DIELTQPPSVSVAPGQTARISCSGDNLGKKYVHWYQQKPGQAPVLVIYYDSKRPSGIPERFSGSNSGNTATLTISGTQAEDEADYYCSAWTTTMMHIVFGGGTKLTVLG | 0.12 | – | 0.16 | ~0.1 | 6 | – | – |
| mEphrinB2-Fc fusion protein (Fc fusion, mouse, UniProt P52800 27-227, looked up, not shown: Fc part, not described) ISRSIVLEPIYWNSSNSKFLPGQGLVLYPQIGDKLDIICPKVDSKTVGQYEYYKVYMVDKDQADRCTIKKENTPLLNCARPDQDVKFTIKFQEFSPNLWGLEFQKNKDYYIISTSNGSLEGLDNQEGGVCQTRAMKILMKVGQDASSAGSARNHGPTRRPELEAGTNGRSSTTSPFVKPNPGSSTDGNSAGHSGNNLLGSE | – | – | – | – | – | binds | – |
| MOR07728 IgG4-Pro (antibody, V domains shown, Fab MOR07728 converted into human IgG4-Pro format) VH: QVELVQSGAEVKKPGSSVKVSCKASGGTFSTYAISWVRQAPGQGLEWMGRIIPIFGTANYAQKFQGRVTITADESTSTAYMELSSLRSEDTAVYYCARSSYTILTTYYNYNAMDNWGQGTLVTVSS VL: DIQMTQSPSSLSASVGDRVTITCRASQNINNFLNWYQQKPGKAPKLLIYGSSILQSGVPSRFSGSGSGTDFTLTISSLQPEDFATYYCQQNDFYSPSTFGQGTKVEIKR | 1.58 | ~2 | – | ~3 | – | – | 3.26 |
| MOR07955 IgG4-Pro (antibody, V domains shown, Fab MOR07955 converted into human IgG4-Pro format) VH: QVELVQSGAEVKKPGSSVKVSCKASGGTFSTYAISWVRQAPGQGLEWMGKIIPIFGDADYAQKFQGRVTITADESTSTAYMELSSLRSEDTAVYYCARSSYTILTTYYNYNAMDNWGQGTLVTVSS VL: DIQMTQSPSSLSASVGDRVTITCRASQNINNFLNWYQQKPGKAPKLLIYGSSILQSGVPSRFSGSGSGTDFTLTISSLQPEDFATYYCSQDHFYPPSGTFGQGTKVEIKR | 0.51 | – | 0.31 | – | – | – | – |
| MOR07957 IgG4-Pro (antibody, V domains shown, Fab MOR07957 converted into human IgG4-Pro format) VH: QVELVQSGAEVKKPGSSVKVSCKASGGTFSTYAISWVRQAPGQGLEWMGQIIPIFGDADYAQKFQGRVTITADESTSTAYMELSSLRSEDTAVYYCARSSYTILTTYYNYNAMDNWGQGTLVTVSS VL: DIQMTQSPSSLSASVGDRVTITCRASQNINNFLNWYQQKPGKAPKLLIYGSSILQSGVPSRFSGSGSGTDFTLTISSLQPEDFATYYCQQNDFYSPSTFGQGTKVEIKR | 0.36 | – | 0.79 | – | – | – | – |
| MOR07956 IgG4-Pro (antibody, V domains shown, Fab MOR07956 converted into human IgG4-Pro format) VH: QVELVQSGAEVKKPGSSVKVSCKASGGTFSTYAISWVRQAPGQGLEWMGKIIPIFGDADYAQKFQGRVTITADESTSTAYMELSSLRSEDTAVYYCARSSYTILTTYYNYNAMDNWGQGTLVTVSS VL: DIQMTQSPSSLSASVGDRVTITCRASQNINNFLNWYQQKPGKAPKLLIYGSSILQSGVPSRFSGSGSGTDFTLTISSLQPEDFATYYCQQYDFYLSGTFGQGTKVEIKR | 0.34 | – | – | – | – | – | 0.43 |
